Test results published in article PMC2807882.
Each block holds one binder with its values, some of them ahead of it.

Experiments:
[1] = molecular target: T1, Mmp53 (mouse p53) with C-terminal FlAsH tag, labelled with FlAsH (mouse (Mus musculus)), P02340; experiment: dimer-tetramer equilibrium; details: natural protein, chains chain, FlAsH (from FlAsH-EDT2, Lumio Green) on the C-terminal CCPGCC tetra-cysteine tag, remark: other sources report otherwise
T1 chain: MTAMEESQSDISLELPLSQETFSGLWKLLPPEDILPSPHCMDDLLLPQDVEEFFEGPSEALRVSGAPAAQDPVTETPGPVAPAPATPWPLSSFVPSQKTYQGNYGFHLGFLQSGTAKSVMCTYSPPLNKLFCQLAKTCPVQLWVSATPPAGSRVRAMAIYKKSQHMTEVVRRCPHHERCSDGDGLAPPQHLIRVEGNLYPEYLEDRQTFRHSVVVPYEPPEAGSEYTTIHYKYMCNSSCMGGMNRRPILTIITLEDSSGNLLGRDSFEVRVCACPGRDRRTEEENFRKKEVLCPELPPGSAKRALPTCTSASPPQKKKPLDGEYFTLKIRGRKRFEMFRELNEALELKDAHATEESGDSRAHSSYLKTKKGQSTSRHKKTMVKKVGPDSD

[2] = molecular target: T1, Mmp53 (mouse p53) with C-terminal FlAsH …; experiment: AUC; sedimentation velocity with fluorescence detection, FlAsH-labelled protein at 5-500 nM; 150 mM NaCl, 25 mM phosphate pH 7.2, 10% glycerol, BSA 0.2 mg/mL, 1 mM beta-mercaptoethanol, 10°C; tetramer to dimers; Kd expressed in concentration of monomer; details: remark: other sources report otherwise
[3] = molecular target: T2, Mus musculus p53, full length, with C-terminal FlAsH tag, FlAsH-labelled (Mus musculus), P02340; experiment: AUC; sedimentation velocity with fluorescence detection, FlAsH-labelled protein at 5-500 nM (monomer); 150 mM NaCl, 25 mM phosphate pH 7.2, 10% glycerol, BSA 0.2 mg/mL, 1 mM β-mercaptoethanol, 10°C; tetramer to dimers; Kd expressed in concentration of monomer; details: remark: other sources report otherwise
T2 chain: T1 chain

Kd [1]: 17.2 nM | fold weaker self-association (dimer-tetramer equilibrium) than Dmp53, Drp53 and ΔNp73β [2]: 10 fold | stoichiometry N [2]: 4
B1: Mmp53 (mouse p53) with C-terminal FlAsH tag, labelled with FlAsH, P02340 1-390 (natural protein)
chain: T1 chain

Kd [3]: 17.2 nM
B2: Mus musculus p53, full length, with C-terminal FlAsH tag, FlAsH-labelled, P02340 1-390 (natural protein)
chain: T1 chain
modifications: here or on the partner: FlAsH (from FlAsH-EDT2, an arsenic derivative of fluorescein) on the C-terminal CCPGCC tetra-cysteine tag; FlAsH (from FlAsH-EDT2, an arsenic derivative of fluorescein) on the C-terminal CCPGCC tetra-cysteine tag
